From the supplement of paper PMC10065799, “High-throughput profiling of sequence recognition by tyrosine kinases and SH2 domains using bacterial peptide display” (eLife, 2023)
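Also: 11-residue human phosphosite peptides and single-mutation variants displayed on the E. coli surface, counted by deep sequencing, each peptide's frequency after selection divided by its frequency in the unselected input library; frequency after pTyr selection over input frequency; kinase dosed for 20-30% of maximal phosphorylation in three min.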

What follows are sequences tested against FGFR1 (UniProt P11362) (assay: phosphorylation enrichment, bacterial display (enrichment ratio); higher = better substrate or ligand; peptides without Tyr show the background).
Chain of FGFR1 (P11362 whole entry, looked up): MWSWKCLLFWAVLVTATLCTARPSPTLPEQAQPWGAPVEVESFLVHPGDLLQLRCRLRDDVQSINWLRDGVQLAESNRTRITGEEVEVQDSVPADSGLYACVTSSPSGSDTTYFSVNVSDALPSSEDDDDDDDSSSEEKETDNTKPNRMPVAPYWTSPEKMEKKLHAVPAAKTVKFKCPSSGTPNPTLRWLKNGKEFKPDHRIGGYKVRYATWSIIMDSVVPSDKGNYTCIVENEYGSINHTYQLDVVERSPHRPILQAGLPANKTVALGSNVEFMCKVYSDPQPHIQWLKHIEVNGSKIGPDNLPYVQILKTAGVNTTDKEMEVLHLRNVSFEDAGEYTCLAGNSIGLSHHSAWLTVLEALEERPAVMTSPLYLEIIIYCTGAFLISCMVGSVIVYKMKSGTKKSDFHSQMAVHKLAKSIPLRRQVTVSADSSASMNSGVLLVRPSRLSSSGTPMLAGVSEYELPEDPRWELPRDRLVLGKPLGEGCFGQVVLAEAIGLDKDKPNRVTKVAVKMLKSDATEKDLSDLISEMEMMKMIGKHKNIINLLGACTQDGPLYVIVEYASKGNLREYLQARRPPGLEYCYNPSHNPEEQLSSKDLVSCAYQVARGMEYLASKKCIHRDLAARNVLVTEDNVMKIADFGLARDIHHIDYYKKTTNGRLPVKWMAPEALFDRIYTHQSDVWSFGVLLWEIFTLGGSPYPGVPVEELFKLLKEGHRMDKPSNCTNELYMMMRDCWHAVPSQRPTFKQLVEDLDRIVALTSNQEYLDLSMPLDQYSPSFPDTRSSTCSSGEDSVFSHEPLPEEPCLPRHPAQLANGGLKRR
LKGQVYILGGE [ASS1_Y359_R363G] showed a phosphorylation enrichment of 1.06. In the case of IKIMGYFIRTI [IDS_Y490_S491F], the phosphorylation enrichment is reported as 0.479. With EMFNPYFGLFE [NEDD4L_Y679_YF] the phosphorylation enrichment was 1.94. Work on ATPSRYMTFLH [DYNC2H1_Y2872] yielded a phosphorylation enrichment of 0.329. With YGTAQYCCRMG [LRRK2_Y2023_I2020T] the phosphorylation enrichment was 0.498. QKTGDYYDLYG [PTPN11_Y62_N58K] gave a phosphorylation enrichment of 20.8. Sequence KRNSLYSFSDH [CCDC82_Y331_Q327R] has a phosphorylation enrichment of 0.411. PSQRRYVYYYS [PTEN_Y174] was tested, and the phosphorylation enrichment was 2.08. With RNLLIYTEFGK [HGD_Y166_G161R] the phosphorylation enrichment was 0.583. SVGGCYEQLFV [MC4R_Y41_D37V] gave a phosphorylation enrichment of 0.791. RWHEGYRQTPR [CD44_Y412_K417R] was tested, and the phosphorylation enrichment was 0.433. For HNLDYYKKTTN [FGFR3_Y648], the phosphorylation enrichment was 0.694. TTKGAYSLSIR [YES1_Y194] showed a phosphorylation enrichment of 0.49. For KRRGPYEMSPS [PLPP7_Y172_T174M], the phosphorylation enrichment was 0.338. KGEDFYCVTCP [FHL1_Y149_H154P] showed a phosphorylation enrichment of 1.15. TRSFKCLLLSM [NF1_Y491_Y491C_YF] was tested, and the phosphorylation enrichment was 0.531. HYPDVYAWEQL [ALX3_Y181_R183W] showed a phosphorylation enrichment of 1.19. Sequence EILLSYLRTGY [TGM1_Y365] has a phosphorylation enrichment of 0.559. QRDSSYFWEIE [RAF1_Y340_YF] showed a phosphorylation enrichment of 1.04. Work on WSQAMYPDLGP [STARD8_Y330_R327Q] yielded a phosphorylation enrichment of 0.493. Work on AKKKMYSHKTK [AGXT_Y231_R233H] yielded a phosphorylation enrichment of 0.621. Sequence GRKTLYSFFSP [UNG_Y8_Q4R] has a phosphorylation enrichment of 0.571. In the case of GSERRYSREGG [PTPRN2_Y139], the phosphorylation enrichment is reported as 0.4. In the case of KACKHYLTTRT [ZBTB5_Y118], the phosphorylation enrichment is reported as 0.448. GQLIFYAPPEW [CNTN6_Y315] gave a phosphorylation enrichment of 0.513. IDFARYWHGDD [MMP11_Y162] showed a phosphorylation enrichment of 0.477. Sequence VSFDEYRFRSF [CFTR_Y515_V520F_YF] has a phosphorylation enrichment of 0.514. With QLATEYVFSDF [PANX1_Y10] the phosphorylation enrichment was 0.716. YRRITYHNWRH [PDE6B_Y556] was tested, and the phosphorylation enrichment was 0.386. In the case of VTRANYFIRDE [GNAS_Y339_K338N], the phosphorylation enrichment is reported as 0.412. In the case of FIGRIYLFLTK [GARS1_Y414_YF], the phosphorylation enrichment is reported as 0.542. In the case of DKTGEYPVPLT [ACADM_Y73_I78T], the phosphorylation enrichment is reported as 0.426. KNKKDYYDMYE [SLC26A3_Y526] gave a phosphorylation enrichment of 6.27.

Each sequence was assayed against Fes (UniProt P07332) in the same assay as above.
Chain of Fes (P07332 whole entry, looked up): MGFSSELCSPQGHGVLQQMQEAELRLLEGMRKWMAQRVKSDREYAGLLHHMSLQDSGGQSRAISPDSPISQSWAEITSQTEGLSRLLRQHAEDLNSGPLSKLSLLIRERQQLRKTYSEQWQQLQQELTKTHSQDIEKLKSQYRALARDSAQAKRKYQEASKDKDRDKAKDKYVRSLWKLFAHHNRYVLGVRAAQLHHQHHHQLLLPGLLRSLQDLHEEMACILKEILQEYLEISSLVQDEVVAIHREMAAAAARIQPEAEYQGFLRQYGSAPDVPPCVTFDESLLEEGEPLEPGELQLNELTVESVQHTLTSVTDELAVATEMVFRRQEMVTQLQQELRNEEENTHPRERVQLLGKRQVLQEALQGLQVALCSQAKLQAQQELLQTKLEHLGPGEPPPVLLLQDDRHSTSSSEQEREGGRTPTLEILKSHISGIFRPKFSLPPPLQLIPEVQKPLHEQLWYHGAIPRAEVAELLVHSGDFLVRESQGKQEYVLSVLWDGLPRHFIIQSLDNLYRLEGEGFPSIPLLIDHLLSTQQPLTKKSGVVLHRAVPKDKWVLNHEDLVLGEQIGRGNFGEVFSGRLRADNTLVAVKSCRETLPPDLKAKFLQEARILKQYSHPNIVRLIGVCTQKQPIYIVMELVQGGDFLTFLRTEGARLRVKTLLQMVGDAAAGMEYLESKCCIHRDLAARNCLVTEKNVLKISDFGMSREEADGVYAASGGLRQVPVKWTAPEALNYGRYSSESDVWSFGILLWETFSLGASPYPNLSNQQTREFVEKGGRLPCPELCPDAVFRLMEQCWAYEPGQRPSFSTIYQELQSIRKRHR
Work on LKGQVYILGGE [ASS1_Y359_R363G] yielded a phosphorylation enrichment of 1.93. With IKIMGYFIRTI [IDS_Y490_S491F] the phosphorylation enrichment was 1.08. In the case of EMFNPYFGLFE [NEDD4L_Y679_YF], the phosphorylation enrichment is reported as 1.21. ATPSRYMTFLH [DYNC2H1_Y2872] was tested, and the phosphorylation enrichment was 0.748. For YGTAQYCCRMG [LRRK2_Y2023_I2020T], the phosphorylation enrichment was 0.613. With QKTGDYYDLYG [PTPN11_Y62_N58K] the phosphorylation enrichment was 1.33. Sequence KRNSLYSFSDH [CCDC82_Y331_Q327R] has a phosphorylation enrichment of 0.55. PSQRRYVYYYS [PTEN_Y174] was tested, and the phosphorylation enrichment was 1.08. Sequence RNLLIYTEFGK [HGD_Y166_G161R] has a phosphorylation enrichment of 1.22. SVGGCYEQLFV [MC4R_Y41_D37V] showed a phosphorylation enrichment of 1.42. For RWHEGYRQTPR [CD44_Y412_K417R], the phosphorylation enrichment was 0.851. HNLDYYKKTTN [FGFR3_Y648] gave a phosphorylation enrichment of 1.2. For TTKGAYSLSIR [YES1_Y194], the phosphorylation enrichment was 0.681. KRRGPYEMSPS [PLPP7_Y172_T174M] showed a phosphorylation enrichment of 0.452. Sequence KGEDFYCVTCP [FHL1_Y149_H154P] has a phosphorylation enrichment of 1.01. Work on TRSFKCLLLSM [NF1_Y491_Y491C_YF] yielded a phosphorylation enrichment of 1.08. Sequence HYPDVYAWEQL [ALX3_Y181_R183W] has a phosphorylation enrichment of 1.31. For EILLSYLRTGY [TGM1_Y365], the phosphorylation enrichment was 1.1. For QRDSSYFWEIE [RAF1_Y340_YF], the phosphorylation enrichment was 1.92. In the case of WSQAMYPDLGP [STARD8_Y330_R327Q], the phosphorylation enrichment is reported as 0.921. With AKKKMYSHKTK [AGXT_Y231_R233H] the phosphorylation enrichment was 1.63. GRKTLYSFFSP [UNG_Y8_Q4R] was tested, and the phosphorylation enrichment was 0.825. In the case of GSERRYSREGG [PTPRN2_Y139], the phosphorylation enrichment is reported as 0.468. KACKHYLTTRT [ZBTB5_Y118] gave a phosphorylation enrichment of 0.964. Work on GQLIFYAPPEW [CNTN6_Y315] yielded a phosphorylation enrichment of 1.18. In the case of IDFARYWHGDD [MMP11_Y162], the phosphorylation enrichment is reported as 0.857. With VSFDEYRFRSF [CFTR_Y515_V520F_YF] the phosphorylation enrichment was 1.12. QLATEYVFSDF [PANX1_Y10] was tested, and the phosphorylation enrichment was 1.85. For YRRITYHNWRH [PDE6B_Y556], the phosphorylation enrichment was 0.637. For VTRANYFIRDE [GNAS_Y339_K338N], the phosphorylation enrichment was 0.736. FIGRIYLFLTK [GARS1_Y414_YF] was tested, and the phosphorylation enrichment was 1.45. In the case of DKTGEYPVPLT [ACADM_Y73_I78T], the phosphorylation enrichment is reported as 0.902. Work on KNKKDYYDMYE [SLC26A3_Y526] yielded a phosphorylation enrichment of 0.851.
